This test addresses Arp2/3 complex from strain Arp2cys-Arp3cys, labeled with Alexa 488 and Alexa 594 (Schizosaccharomyces pombe) (UniProt P78774). The experiment in a line: FRET or BRET.
Sequence of UniProt P78774 (P78774 whole entry, looked up, one chain of several): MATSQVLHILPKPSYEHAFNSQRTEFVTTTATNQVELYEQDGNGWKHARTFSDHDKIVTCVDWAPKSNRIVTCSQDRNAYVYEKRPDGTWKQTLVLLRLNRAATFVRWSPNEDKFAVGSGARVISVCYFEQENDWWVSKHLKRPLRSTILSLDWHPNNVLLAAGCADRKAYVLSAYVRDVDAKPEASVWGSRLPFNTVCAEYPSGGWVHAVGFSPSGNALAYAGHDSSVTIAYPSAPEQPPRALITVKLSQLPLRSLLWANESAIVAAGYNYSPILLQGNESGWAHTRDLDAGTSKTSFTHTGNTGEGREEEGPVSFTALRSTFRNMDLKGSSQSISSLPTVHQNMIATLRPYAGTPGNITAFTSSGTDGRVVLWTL

“S. pombe Wsp1-CA (541SC–574D) (from UniProt O36027 541-574) (domain or fragment)” yielded an increase of mean ETeff at 20 μM CA of 0.06.
As for “S. pombe Wsp1p-VCA (497Q–574D) (from UniProt O36027 497-574) (domain or fragment)”, the increase of mean ETeff at 20 μM VCA was found to be 0.13.
In the case of “VCA crosslinked to an actin monomer (actin-VCA) (from UniProt O36027 497-574; P68139 1-377) (complex)”, the increase of mean ETeff at 2 μM actin-VCA amounted to 0.12.
